ChEMBL document CHEMBL1143427, “Interactions of ceftobiprole with beta-lactamases from molecular classes A to D” (Antimicrob Agents Chemother, 2007)

Key:
[1] = substrate: CC(C)(O/N=C(\C(=O)N[C@@H]1C(=O)N2C(C(=O)[O-])=C(C[n+]3ccccc3)CS[C@H]12)c1csc(N)n1)C(=O)O; assay: (§1) Ratio of Kcat to Km of Serratia marcescens SME3 assessed as drug hydrolysis by spectrophotometry
[2] = substrate: Nc1nc(/C(=N/O)C(=O)N[C@@H]2C(=O)N3C(C(=O)O)=C(/C=C4\CCN([C@@H]5CCNC5)C4=O)CS[C@H]23)ns1; assay: as §1
[3] = substrate: CO/N=C(\C(=O)N[C@@H]1C(=O)N2C(C(=O)[O-])=C(C[N+]3(C)CCCC3)CS[C@H]12)c1csc(N)n1; assay: as §1
[4] = substrate: O=C(Cc1cccs1)N[C@@H]1C(=O)N2C(C(=O)[O-])=C(C[n+]3ccccc3)CS[C@H]12; assay: as §1
[5] = substrate: CC1(C)S[C@@H]2[C@H](NC(=O)Cc3ccccc3)C(=O)N2[C@H]1C(=O)O; assay: as §1
[6] = substrate: CC(C)(O/N=C(\C(=O)N[C@@H]1C(=O)N2C(C(=O)[O-])=C(C[n+]3ccccc3)CS[C@H]12)c1csc(N)n1)C(=O)O; assay: (§2) Activity of Serratia marcescens SME3 assessed as drug hydrolysis by spectrophotometry
[7] = substrate: Nc1nc(/C(=N/O)C(=O)N[C@@H]2C(=O)N3C(C(=O)O)=C(/C=C4\CCN([C@@H]5CCNC5)C4=O)CS[C@H]23)ns1; assay: as §2
[8] = substrate: CO/N=C(\C(=O)N[C@@H]1C(=O)N2C(C(=O)[O-])=C(C[N+]3(C)CCCC3)CS[C@H]12)c1csc(N)n1; assay: as §2
[9] = substrate: O=C(Cc1cccs1)N[C@@H]1C(=O)N2C(C(=O)[O-])=C(C[n+]3ccccc3)CS[C@H]12; assay: as §2
[10] = substrate: CC1(C)S[C@@H]2[C@H](NC(=O)Cc3ccccc3)C(=O)N2[C@H]1C(=O)O; assay: as §2
[11] = substrate: CC(C)(O/N=C(\C(=O)N[C@@H]1C(=O)N2C(C(=O)[O-])=C(C[n+]3ccccc3)CS[C@H]12)c1csc(N)n1)C(=O)O; assay: (§3) Ratio of Kcat to Km of Klebsiella oxytoca beta-lactamase K1 assessed as drug hydrolysis by spectrophotometry
[12] = substrate: CO/N=C(\C(=O)N[C@@H]1C(=O)N2C(C(=O)O)=C(COC(C)=O)CS[C@H]12)c1csc(N)n1; assay: as §3
[13] = substrate: Nc1nc(/C(=N/O)C(=O)N[C@@H]2C(=O)N3C(C(=O)O)=C(/C=C4\CCN([C@@H]5CCNC5)C4=O)CS[C@H]23)ns1; assay: as §3
[14] = substrate: CO/N=C(\C(=O)N[C@@H]1C(=O)N2C(C(=O)[O-])=C(C[N+]3(C)CCCC3)CS[C@H]12)c1csc(N)n1; assay: as §3
[15] = substrate: O=C(Cc1cccs1)N[C@@H]1C(=O)N2C(C(=O)[O-])=C(C[n+]3ccccc3)CS[C@H]12; assay: as §3
[16] = substrate: CC1(C)S[C@@H]2[C@H](NC(=O)Cc3ccccc3)C(=O)N2[C@H]1C(=O)O; assay: as §3
[17] = substrate: CC(C)(O/N=C(\C(=O)N[C@@H]1C(=O)N2C(C(=O)[O-])=C(C[n+]3ccccc3)CS[C@H]12)c1csc(N)n1)C(=O)O; assay: (§4) Activity of Klebsiella oxytoca beta-lactamase K1assessed as drug hydrolysis by spectrophotometry
[18] = substrate: CO/N=C(\C(=O)N[C@@H]1C(=O)N2C(C(=O)O)=C(COC(C)=O)CS[C@H]12)c1csc(N)n1; assay: as §4
[19] = substrate: Nc1nc(/C(=N/O)C(=O)N[C@@H]2C(=O)N3C(C(=O)O)=C(/C=C4\CCN([C@@H]5CCNC5)C4=O)CS[C@H]23)ns1; assay: as §4
[20] = substrate: CO/N=C(\C(=O)N[C@@H]1C(=O)N2C(C(=O)[O-])=C(C[N+]3(C)CCCC3)CS[C@H]12)c1csc(N)n1; assay: as §4
[21] = substrate: O=C(Cc1cccs1)N[C@@H]1C(=O)N2C(C(=O)[O-])=C(C[n+]3ccccc3)CS[C@H]12; assay: as §4
[22] = substrate: CC1(C)S[C@@H]2[C@H](NC(=O)Cc3ccccc3)C(=O)N2[C@H]1C(=O)O; assay: as §4
[23] = substrate: CC(C)(O/N=C(\C(=O)N[C@@H]1C(=O)N2C(C(=O)[O-])=C(C[n+]3ccccc3)CS[C@H]12)c1csc(N)n1)C(=O)O; assay: (§5) Ratio of Kcat to Km of Pseudomonas aeruginosa IMP1 assessed as drug hydrolysis by spectrophotometry
[24] = substrate: Nc1nc(/C(=N/O)C(=O)N[C@@H]2C(=O)N3C(C(=O)O)=C(/C=C4\CCN([C@@H]5CCNC5)C4=O)CS[C@H]23)ns1; assay: as §5
[25] = substrate: CO/N=C(\C(=O)N[C@@H]1C(=O)N2C(C(=O)[O-])=C(C[N+]3(C)CCCC3)CS[C@H]12)c1csc(N)n1; assay: as §5
[26] = substrate: O=C(Cc1cccs1)N[C@@H]1C(=O)N2C(C(=O)[O-])=C(C[n+]3ccccc3)CS[C@H]12; assay: as §5
[27] = substrate: CC1(C)S[C@@H]2[C@H](NC(=O)Cc3ccccc3)C(=O)N2[C@H]1C(=O)O; assay: as §5
[28] = substrate: CC(C)(O/N=C(\C(=O)N[C@@H]1C(=O)N2C(C(=O)[O-])=C(C[n+]3ccccc3)CS[C@H]12)c1csc(N)n1)C(=O)O; assay: (§6) Activity of Providencia stuartii AmpC assessed as drug hydrolysis by spectrophotometry
[29] = substrate: Nc1nc(/C(=N/O)C(=O)N[C@@H]2C(=O)N3C(C(=O)O)=C(/C=C4\CCN([C@@H]5CCNC5)C4=O)CS[C@H]23)ns1; assay: as §6
[30] = substrate: CO/N=C(\C(=O)N[C@@H]1C(=O)N2C(C(=O)[O-])=C(C[N+]3(C)CCCC3)CS[C@H]12)c1csc(N)n1; assay: as §6
[31] = substrate: O=C(Cc1cccs1)N[C@@H]1C(=O)N2C(C(=O)[O-])=C(C[n+]3ccccc3)CS[C@H]12; assay: as §6
[32] = substrate: CC1(C)S[C@@H]2[C@H](NC(=O)Cc3ccccc3)C(=O)N2[C@H]1C(=O)O; assay: as §6
[33] = substrate: CC(C)(O/N=C(\C(=O)N[C@@H]1C(=O)N2C(C(=O)[O-])=C(C[n+]3ccccc3)CS[C@H]12)c1csc(N)n1)C(=O)O; assay: (§7) Ratio of Kcat to Km of Providencia stuartii AmpC assessed as drug hydrolysis by spectrophotometry
[34] = substrate: Nc1nc(/C(=N/O)C(=O)N[C@@H]2C(=O)N3C(C(=O)O)=C(/C=C4\CCN([C@@H]5CCNC5)C4=O)CS[C@H]23)ns1; assay: as §7
[35] = substrate: CO/N=C(\C(=O)N[C@@H]1C(=O)N2C(C(=O)[O-])=C(C[N+]3(C)CCCC3)CS[C@H]12)c1csc(N)n1; assay: as §7
[36] = substrate: O=C(Cc1cccs1)N[C@@H]1C(=O)N2C(C(=O)[O-])=C(C[n+]3ccccc3)CS[C@H]12; assay: as §7
[37] = substrate: CC1(C)S[C@@H]2[C@H](NC(=O)Cc3ccccc3)C(=O)N2[C@H]1C(=O)O; assay: as §7

B1: Carbapenem-hydrolyzing beta-lactamase SME-3 (Serratia marcescens), Q6PRG8 (protein)
chain: MSNKVNFKTASFLFSVCLALSAFNAHANKSDAAAKQIKKLEEDFDGRIGVFAIDTGSGNTFGYRSDERFPLCSSFKGFLAAAVLERVQQKKLDINQKVKYESRDLEYYSPITTKYKGSGMTLGDMASAALQYSDNGATNIIMERFLGGPEGMTKFMRSIGDNEFRLDRWELELNTAIPGDKRDTSTPKAVANSLNKLALGNVLNAKVKAIYQNWLKGNTTGDARIRASVPADWVVGDKTGSCGAYGTANDYAVIWPKNRAPLIVSIYTTRKSKDDKHSDKTIAEASRIAIQAID
kcat/Km [1]: 940 M⁻¹ s⁻¹
kcat/Km [2]: 22000 M⁻¹ s⁻¹
kcat/Km [3]: 5400 M⁻¹ s⁻¹
kcat/Km [4]: 3e+06 M⁻¹ s⁻¹
kcat/Km [5]: 4e+06 M⁻¹ s⁻¹
Km [6]: 170 µM
kcat [6]: 0.16 s⁻¹
Km [7]: 270 µM
kcat [7]: 5.9 s⁻¹
Km [8]: 280 µM
kcat [8]: 1.5 s⁻¹
Km [9]: 400 µM
kcat [9]: 1200 s⁻¹
Km [10]: 2.2 µM
kcat [10]: 8.8 s⁻¹

B2: Beta-lactamase (Klebsiella oxytoca), Q8RT60 (protein)
chain: MIKSSWRKIAMLAAAVPLLLASGALWASTDAIHQKLTDLEKRSGGRLGVALINTADNSQILYRGDERFAMCSTSKVMAAAAVLKQSESNKEVVNKRLEINAADLVVWSPITEKHLQSGMTLAELSAATLQYSDNTAMNLIIGYLGGPEKVTAFARSIGDATFRLDRTEPTLNTAIPGDERDTSTPLAMAESLRKLTLGDALGEQQRAQLVTWLKGNTTGGQSIRAGLPESWVVGDKTGAGDYGTTNDIAVIWPEDHAPLILVTYFTQPQQDAKNRKEVLAAAAKIVTEGL
kcat/Km [11]: 130 M⁻¹ s⁻¹
kcat/Km [12]: 160000 M⁻¹ s⁻¹
kcat/Km [13]: 7.2e+06 M⁻¹ s⁻¹
kcat/Km [14]: 59000 M⁻¹ s⁻¹
kcat/Km [15]: 7e+06 M⁻¹ s⁻¹
kcat/Km [16]: 2.8e+07 M⁻¹ s⁻¹
Km [17]: 140 µM
kcat [17]: 0.018 s⁻¹
Km [18]: 550 µM
kcat [18]: 88 s⁻¹
Km [19]: 32 µM
kcat [19]: 230 s⁻¹
Km [20]: 1000 µM
kcat [20]: 59 s⁻¹
Km [21]: 100 µM
kcat [21]: 700 s⁻¹
Km [22]: 40 µM
kcat [22]: 1100 s⁻¹

B3: Metallo beta-lactamase (Pseudomonas aeruginosa), Q6TUJ4 (protein)
chain: YVHTSFEEVNGWGVVPKHGLVVLVNAEAYLIDTPFTAKDTEKLVTWFVERGYKIKGSISSHFHSDSTGGIEWLNSRSIPTYASELTNELLKKDGKVQATNSFSGVNYWLVKNKIEVFYPGPGHTPDNVVVWLP
kcat/Km [23]: 90000 M⁻¹ s⁻¹
kcat/Km [24]: 740000 M⁻¹ s⁻¹
kcat/Km [25]: 150000 M⁻¹ s⁻¹
kcat/Km [26]: 75000 M⁻¹ s⁻¹
kcat/Km [27]: 560000 M⁻¹ s⁻¹

B4: Beta-lactamase (Providencia stuartii), O69773 (protein)
chain: MDNSMKNIFRQGRLFIALSLAMTSISAFALTQQEVDDIIKPLMKQEQIPGMSVAISVNGKQAIYHYGVQSKQTQIPVSDRTLYEIGSLSKTFTATLATYAQIQGKLDFSQSVSHYLPELKGSAFDNVSVMNLATHTSGLSLFVPSDIKTNDQLMAYYQKWLPDNEVGQYRSYSNLGVGLLGIVTAKQLNMPFSQAMEKLMLPSLGLKHTYIHVPKSQEKYYAQGYNKQNQPVRLNLEILGPEAYGLKSNAKDLIRYLEINMQSIKVAKTWQEAIENTHTGVYLTDSFVQDMMWESYPWPVSLSQLLQGNRDDMALKPQKVELIKPAMAPEVRAYYNKTGSSNGFATYAIFIPEEKIAIVMLSNKWIPIPQRITATYQLLEKIER
Km [28]: 26 µM
kcat [28]: 0.19 s⁻¹
Km [29]: 260 µM
kcat [29]: 0.16 s⁻¹
Km [30]: 780 µM
kcat [30]: 3 s⁻¹
Km [31]: 920 µM
kcat [31]: 530 s⁻¹
Km [32]: 14 µM
kcat [32]: 3.3 s⁻¹
kcat/Km [33]: 7300 M⁻¹ s⁻¹
kcat/Km [34]: 620 M⁻¹ s⁻¹
kcat/Km [35]: 3800 M⁻¹ s⁻¹
kcat/Km [36]: 580000 M⁻¹ s⁻¹
kcat/Km [37]: 250000 M⁻¹ s⁻¹
